What was measured:
Test in all cases: purified protein
[1] = substrate: CCCCCCCC(=O)SCCNC(=O)CCNC(=O)[C@H](O)C(C)(C)COP(=O)(O)OP(=O)(O)OC[C@H]1O[C@@H](n2cnc3c(N)ncnc32)[C@H](O)[C@@H]1OP(=O)(O)O; details: 1 mM FcPF6, pH 6.5 HEPES-KOH, 20 mM KCl, 65°C
[2] = substrate: NC(=O)C1=CN([C@@H]2O[C@H](COP(=O)(O)OP(=O)(O)OC[C@H]3O[C@@H](n4cnc5c(N)ncnc54)[C@H](O)[C@@H]3O)[C@@H](O)[C@H]2O)C=CC1
[3] = substrate: C/C=C/C(=O)SCCNC(=O)CCNC(=O)[C@H](O)C(C)(C)COP(=O)(O)OP(=O)(O)OC[C@H]1O[C@@H](n2cnc3c(N)ncnc32)[C@H](O)[C@@H]1OP(=O)(O)O
[4] = substrate: CC(=O)CC(=O)SCCNC(=O)CCNC(=O)[C@H](O)C(C)(C)COP(=O)(O)OP(=O)(O)OC[C@H]1O[C@@H](n2cnc3c(N)ncnc32)[C@H](O)[C@@H]1OP(=O)(O)O; details: 0.2 mM NADH, pH 7 TRIS-HCl, 35°C
[5] = substrate: C[C@H](O)CC(=O)SCCNC(=O)CCNC(=O)[C@H](O)C(C)(C)COP(=O)(O)OP(=O)(O)OC[C@H]1O[C@@H](n2cnc3c(N)ncnc32)[C@H](O)[C@@H]1OP(=O)(O)O; details: oxidative direction with NAD+
[6] = substrate: NC(=O)c1ccc[n+]([C@@H]2O[C@H](COP(=O)(O)OP(=O)(O)OC[C@H]3O[C@@H](n4cnc5c(N)ncnc54)[C@H](O)[C@@H]3O)[C@@H](O)[C@H]2O)c1; details: 0.4 mM crotonyl-CoA, pH 7 TRIS-HCl, 75°C, varied: cofactor
[7] = substrate: CC(=O)CC(=O)SCCNC(=O)CCNC(=O)[C@H](O)C(C)(C)COP(=O)(O)OP(=O)(O)OC[C@H]1O[C@@H](n2cnc3c(N)ncnc32)[C@H](O)[C@@H]1OP(=O)(O)O; type: biochemical, Sulfolobus acidocaldarius; details: thiolytic cleavage, 0.2 mM CoA, 20 mM MgCl2, pH 8, 23°C
[8] = substrate: CC(C)(COP(=O)(O)OP(=O)(O)OC[C@H]1O[C@@H](n2cnc3c(N)ncnc32)[C@H](O)[C@@H]1OP(=O)(O)O)[C@@H](O)C(=O)NCCC(=O)NCCS; type: biochemical, Sulfolobus acidocaldarius; details: thiolytic cleavage, 0.1 mM AcAcCoA, 20 mM MgCl2, pH 8, 23°C
[9] = substrate: C[C@@H](O)CC(=O)SCCNC(=O)CCNC(=O)[C@H](O)C(C)(C)COP(=O)(O)OP(=O)(O)OC[C@H]1O[C@@H](n2cnc3c(N)ncnc32)[C@H](O)[C@@H]1OP(=O)(O)O; details: dehydration, pH 6.5 MES-KOH, 20 mM KCl, 65°C
[10] = 0.2 mM INT, pH 7.5 HEPES-NaOH, 100 mM NaCl
[11] = 0.2 mM NAD+, pH 7 TRIS-HCl, 75°C
[12] = 0.6 mM AcAcCoA, pH 7 TRIS-HCl, 35°C, varied: cofactor
[13] = hydration, pH 6.5 MES-KOH, 20 mM KCl, 65°C
[14] = 0.3 mM NADPH, pH 7.5 HEPES-NaOH, 10 mM KCl, 70°C

B1: ACAD (Saci_1123) (Sulfolobus acidocaldarius DSM 639) (protein)
chain: MVLPFKTMEAFNVEISEKHELFRRAVREFMERDVAPYVEKGEKEGQIPKEVLEKAKELGLYGVSVPEEYGGQGGDSLMTVIAQEEMARVWAALSTRVAVGGLFMTPILLFGSEEQRKKYVTPVAKGDKVAAFANTEPQAGSDVAGMQSTAKKVNGKYILNARKIFITNGGIADYYVVTARTSPPEPNARWKGISMFVVEREWKGVKVLNRIETMGLKASNTAELAFEDVEVPAENLVGEEGMGFKYAMSTFDASRVGVAGQALGVAQAALEKMTNYSVQRSAFGSPLLGFQMVQEKIAETLTEVNAARLVTYWAATLYNKGMTNEAIIASSMAKYFATEVAERAAIRAITVHGGYGVATSTGVERLLRDVEIMKIYEGANDIQKLVILKETARRLFGIKM
[1]
  Km: 15.1 ± 4 µM
  kcat: 21.234 s⁻¹

B2: ETF (Saci_0315) (Sulfolobus acidocaldarius DSM 639) (protein)
chain: MAELKIVVSIKQVPDADDLRIDPVTNNLVREGVPAVINPPDYHAIEEAIRLKERFGGKTMVLTMGPGQAEVALREALAMGIDEAYLISDRAMAGADTWATSYTVAKAVQRLGGADIILFGRRAVDGETEQVGPQTGKWLGIPVVAYVREIRSIENGKAVVVRTTEFEEEVIEVPLPAVFTILETANKPRQPDILSLIKAKTAKVTVWNKDDIKAEPTKIGLAGSPTKVIKVSPPPKTRKPEIIDGKKDPEKAAEWFLNKIYESLKEAESSLKEYVKPKAKVKVNSEIWVYIDHIGDRINKASLEILSEARRIADLMDTSVAGVVIGGESVKGIINEVYEYGADKVYFAETKGYDRYDNEVYTKALAKLAKKYKPEGIFFPGTRAARELASTSAIEIDTGLIADCTNFDVDDKGVLLATRPDFGGKEMSTIVCPRHRPVMVTTRAGVFMPLPRMPGRTGELIKEEIEDLYSRLKVLEYKNIEKRNILTEADIVVGVGRGIKSPENIKKFEEFATALGGVLGVSKPLADMGWYPKDRQIGQTGTTIRPKVYIALGVSGAVQHLVGILSSRKIGAINLDQSAPIFDNCDFGVVGDIFEIVPKMMELIKKKGE
[2]; [10]
  Km: 39 ± 12 µM
  kcat: 0.784 s⁻¹

B3: HCDH/ECH (Saci_1109) (Sulfolobus acidocaldarius DSM 639) (protein)
chain: MKVEDIKKILVIGAGTMGHGIAELAAIAGYQVYLSDVSQDILNSAMDKVKWSLTKLKERGTIKEDVETVLQRIRPVVGLDKTVSDADFSIEAITEKIDVKRQTFAKLDELLPPHAILATNTSSLPVSKIAEATKRPDKVVGMHYFNPPALMPLVEVMKGDKTSDETAKVTYELAKKLGKQPIMINKDIPGYVVNRILGGINIASCIVVEKKLADIKEVDAVARYKLGFPMGVFELLDYTGIDVAYYISKSREELGVKDDIPICSLIVEKFKNNELGVKSGKGFYTYPGPGKYVKPELPKELAEKLNPALIIAPAVNEAARLVRENIASKEDVDLGTVLGLGFQKGILKLADEVGIDNIVNSLSELKKLTGISSFDPDPLLTEMVSQGKVGMKSGSGFFEYGKIQQKTLKTLILRVEPPLAWIVLNRPERLNALSQELMGELDKVLDELEFNNDVRVVIITGNGRAFSAGADVTSFTTLRPIDVVRYRYMKNVIYKIQLYTKPVIAAINGFALGGGLELAMACDIRIASNLAQLGQPEINIGIIPGAGGTQRLPRLIGKGRAKLLIYTGDMIPAEEAYKMGLVDQVVPANKFEEEVRRVALKIAEKSPLSLLAAKLAVELGYEANIWTGQELESALFGLLFTTEDVKEGVRAFLERRKPQFKGE
[3]; [11]
  Km: 24 ± 4 µM
  kcat: 20.56 s⁻¹
[4]
  Km: 76 ± 8 µM
[5]
  Km: 43 ± 2 µM
  kcat: 58.672 s⁻¹
[2]; [12]
  Km: 28 ± 7 µM
  kcat: 8.441 s⁻¹
[6]
  Km: 36 ± 9 µM

B4: KT (Saci_1114) (Sulfolobus acidocaldarius DSM 639) (protein)
chain: MLQEVYLVDFARTPFTRFTRKEPQKDPFYNLRPEELAGIVINRLIEKNGINPREIEEIVTGCALQVGEQWSFGGRHEVFASRLPYTIPSMAVDRQCASSITTVAIGAMEVATGMADIVLAGGVEKMSKTPMFDNPHIEPNMAFLTDPKYAEYDLTTGYVMGLTAERLAEEAKISREEMDRWSLRSHQMATKAIQEGYFKDEIIPFETEVEGKKITLTTDQSVRPDTSLEKLSQLPPAFRPNGTITAGNSAPLNSGSAYVLLMSKNALKRYGLTPMAKIRSFGFAGVPPAVMGKGPVPSSKKALEKANLNVKDISLWEINEAFAVVVLNAIKELGLDESTVNKRGGAIAIGHPLGATGARIVGTLARQLLIEGKDYGVATLCVGGGQGGAIVVERV
[7]
  Km: 33 ± 10 µM
  kcat: 1.2 s⁻¹
[8]
  Km: 3.38 µM
  kcat: 1.8 s⁻¹

B5: KT/DUF35 (Saci_1121/1120 complex) (Sulfolobus acidocaldarius DSM 639) (protein)
chain: MRNVAIVGTGHSKFGVRNDVSMQELAWEAVKQALEEANLEQKDIQYFVVGNVGMWSAEELPAVVVGEYCDLTPKGTMRVEAACATGSAAIRDAYQAIKAGEIDVALVVGVEQMSQSPNPQVIELIGRAGNYFWEFENFGLTFPGYYALYASAYMAKYGMKEEDLGSVAVKNHYYGARNPYAQFQKEITMEEYLKSKPVAQPLKLLDSSPITDGAAALILASEEVARKITDSPVWIVSQGVASGTANLSRRTDFTGIEASYVAAKEAYKRAKIDFSDAWRYFDVADVHDCFTIAEIMAYEDLGFAKRGEGHLMARNGETYIGGKIPVNVDGGLKAKGHPIGATGVSMAVSITRQLLYRAHKGTQADIRNGMGITHNVGGTGHYAYITIYSTRRPSS
[7]
  Km: 65 ± 18.7 µM
  kcat: 4.024 s⁻¹
[8]
  Km: 20 ± 4.1 µM
  kcat: 3.467 s⁻¹

B6: MaoC-HCD (Saci_1085) (Sulfolobus acidocaldarius DSM 639) (protein)
chain: MSEQGPFFEDFKVGQRFRSKVGRSLTDVDNIWFTLLTNNSNQIHFNRDYTEKYFSGEPFKGRLVVNGFLTLAIVAGLLVELTSQNGFMLGIENVKFMNPVFAGDTIYGEAEVIEARESKSRPGFGIVKIRTWGYNQRGEKIVEFDRVFMVRKRNSVWSGEKSTDKPQ
[3]; [13]
  Km: 222 ± 64 µM
  kcat: 1.404 s⁻¹
[9]
  Km: 399 ± 127 µM
  kcat: 0.549 s⁻¹

B7: ECR (Saci_1115) (Sulfolobus acidocaldarius DSM 639) (protein)
chain: MKAVILPGFKQGYKIDKNVQEPKAGKSEVVVKLRKAALCYRDLLQIQGFYPRSKYPLILGHEMVGEIEEVGEGVEGFKKGDIVTSLLYVPDWTCDNCKMGEEIYCNNRQLYAQELDGFFAERILVKANSLVKVPPGVSDEGAVVVPCVAAMIYRGLKRANVKQGDIVLVTGAGGGVGIHALQVAKALGAKVVGVTSEESKAKIVGKFSDYVVVGNKFAEEVRKGFGEPSIVVDNVGGPTLDESMRSLKIGGKIVQVGNIDPSVNFSLRLGYLVLKNVELIGHAGATKKDIVDTLEMVRQNKITPVIGGEVSIEDFDKALDMLKDRKRHGKILIKP
[3]; [14]
  Km: 96 ± 18 µM
  kcat: 0.256 s⁻¹

— paper doi:10.1101/2024.07.05.601840v1
